{"source": "patent US20060110801A1", "about": "(WISCONSIN ALUMNI RESEARCH FOUNDATION, published 2006)", "molecular_target": "GST (UniProt P08515 1-218 = GST)", "sequence (P08515 whole entry)": "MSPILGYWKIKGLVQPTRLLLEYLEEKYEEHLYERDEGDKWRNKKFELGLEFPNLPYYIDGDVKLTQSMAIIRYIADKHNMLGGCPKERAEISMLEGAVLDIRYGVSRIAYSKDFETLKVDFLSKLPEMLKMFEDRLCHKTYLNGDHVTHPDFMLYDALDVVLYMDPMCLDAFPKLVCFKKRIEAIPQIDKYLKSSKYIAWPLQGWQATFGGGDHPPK", "assay": "pull-down on glutathione sepharose, Western blot with anti-T7"}
{"binder": "T7-ATR41-227 (fusion protein having a hexahistidine tag, a T7 tag, and amino acids 41 to 227 of ATR) (receptor, also called the I domain; extracellular fragment of ATR) GGFDLYFILDKSGSVLHHWNEIYYFVEQLAHKFISPQLRMSFIVFSTRGTTLMKLTEDREQIRQGLEELQKVLPGGDTYMHEGFERASEQIYYENRQGYRTASVIIALTDGELHEDLFFYSEREANRSRDLGAIVYCVGVKDFNETQLARIADSKDHVFPVNDGFQALQGIIHSILKKSCIEILAAE", "values": [{"measurement": "binding result", "value": "no binding"}]}
